We go through one molecule from paper PMC1635332.

The target in one data set is T1, Nf DNA polymerase (Bacillus phage Nf, UniProt B7SSM2 1-572).
T1 sequence: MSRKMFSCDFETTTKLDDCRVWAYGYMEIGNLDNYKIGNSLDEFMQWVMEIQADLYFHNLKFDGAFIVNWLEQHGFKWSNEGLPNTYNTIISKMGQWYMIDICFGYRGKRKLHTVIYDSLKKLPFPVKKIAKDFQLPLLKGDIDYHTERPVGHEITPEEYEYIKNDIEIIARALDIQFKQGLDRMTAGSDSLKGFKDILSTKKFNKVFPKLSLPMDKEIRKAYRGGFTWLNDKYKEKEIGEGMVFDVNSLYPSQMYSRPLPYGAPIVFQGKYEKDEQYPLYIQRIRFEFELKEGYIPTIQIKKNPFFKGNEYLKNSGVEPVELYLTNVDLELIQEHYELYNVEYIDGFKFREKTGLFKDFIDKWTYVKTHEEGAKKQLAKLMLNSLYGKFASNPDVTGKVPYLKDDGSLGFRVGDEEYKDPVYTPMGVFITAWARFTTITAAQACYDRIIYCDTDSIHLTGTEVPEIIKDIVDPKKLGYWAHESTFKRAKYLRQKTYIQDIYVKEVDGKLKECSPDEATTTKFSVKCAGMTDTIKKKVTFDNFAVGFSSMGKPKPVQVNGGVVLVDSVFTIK
The data set is described as follows: EMSA. (In general: Mobility shift assays separate free from complexed probe on a gel.)

In a further data set the target is T2, GA-1 DNA polymerase (Bacillus phage GA-1, UniProt Q96206 1-578).
T2 sequence: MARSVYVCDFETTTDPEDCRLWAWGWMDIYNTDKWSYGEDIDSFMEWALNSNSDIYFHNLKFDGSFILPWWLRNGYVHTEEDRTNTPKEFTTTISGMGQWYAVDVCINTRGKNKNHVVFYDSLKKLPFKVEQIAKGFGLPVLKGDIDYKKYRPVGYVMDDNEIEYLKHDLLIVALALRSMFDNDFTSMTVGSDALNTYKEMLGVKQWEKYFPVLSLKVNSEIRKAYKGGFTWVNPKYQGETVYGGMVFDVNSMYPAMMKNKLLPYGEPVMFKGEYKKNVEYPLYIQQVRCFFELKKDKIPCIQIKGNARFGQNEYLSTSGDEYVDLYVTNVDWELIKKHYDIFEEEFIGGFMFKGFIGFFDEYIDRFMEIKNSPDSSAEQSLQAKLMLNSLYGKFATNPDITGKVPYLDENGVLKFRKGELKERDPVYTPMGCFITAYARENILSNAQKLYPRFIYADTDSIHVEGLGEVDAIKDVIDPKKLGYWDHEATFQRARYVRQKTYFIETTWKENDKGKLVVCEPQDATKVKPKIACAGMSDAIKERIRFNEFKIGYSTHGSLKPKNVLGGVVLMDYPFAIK
The data set is described as follows: EMSA.

B1: sp1/sp1c+6 (15/21mer primer/template) (dsDNA)
DNA 1: GATCACAGTGAGTAC
DNA 2: TCTATTGTACTCACTGTGATC
A word on the Kd: it is the concentration at which binding is half-saturated. A high value points to a looser complex. Turning to B1, the affinity with Nf DNA polymerase, expressed as Kd, was 1.5 nM. Besides, the binding result with GA-1 DNA polymerase is reported as “no binding”.
